Source: patent US20220153822A1 (ALYTAS THERAPEUTICS, published 2022)
Where a chain is given by its changes, count along the chain named.

B1: Antibody No. 16 (antibody, V domains shown)
VH: QVQLVEFGGGVVQPGRSLRLSCAASGFTFSSYGMHWVRQAPGKGLEWVAAISYDGSNKYYADSVKGRFTISRDNSKNTLYLQMNSLRAEDTAVYYCAKDMGLSWYGEFDYWGQGTLVTVSS
VL: QSVLTQPPSVSEAPRQRVTISCSGSSSNIGNNAVSWYQQLPGKAPKLLIYYDDLLPSGVSDRFSGSKSGTSASLAISGLQSEDEADYYCAAWDDSLNWVFGGGTKLTVL
notes: human IgG1, lambda or kappa light chain; also called 447-B05
B2: Antibody No. 22 (antibody, V domains shown)
VH: QVQLVESGGGVVQPGRSLRLSCAASGFTFSSYGMHWVRQAPGKGLEWVAVISYDGSNKYYADSVKGRFTISRDNSKNTLYLQMNSLRAEDTAVYYCANTPGGLTPFDYWGQGTLVTVSS
VL: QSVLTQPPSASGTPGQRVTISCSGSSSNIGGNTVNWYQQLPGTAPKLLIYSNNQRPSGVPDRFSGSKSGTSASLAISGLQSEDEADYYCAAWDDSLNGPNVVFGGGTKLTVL
notes: human IgG1, lambda or kappa light chain; also called 447-H03
B3: Antibody No. 35 (antibody, V domains shown)
VH: QVQLVQSGAEVKKPGTTVKISCKVSGYSFTDYYMHWVQQAPGKGLEWMGLVDPEDGETLYAEKFQGRVTITVDTSTDTAYMELSSLRSEDTAVYYCAAEPQMVQGPSPPDYWGQGTLVTVSS
VL: QSALTQPASVSGSPGQSITISCTGTSSDVGGYSYVSWYQQHPGKAPKLMIYDVSNRPSGVSNRFSGSKSGNTASLTISGLQAEDEADYYCSSYTSSSTLLFGGGTKLTVL
notes: human IgG1, lambda or kappa light chain; also called 447-E03
B4: Antibody No. 21 (antibody, V domains shown)
VH: QVQLVESGGGLVQPGRSLRLSCAASGFTFDDYAMHWVRQAPGKGLEWVSGISWNSGSIGYADSVKGRFTISRDNAKNSLYLQMNSLRAEDTALYYCAKEGEYSYGGGEFDPWGQGTLVTVSS
VL: B3 VL with S33N, L99W, L100V
notes: human IgG1, lambda or kappa light chain; also called 447-G03
B5: Antibody No. 14 (antibody, V domains shown)
VH: QVQLVESGGGLVQPGRSLRLSCAASGFTFDDYAMHWVRQAPGKGLEWVSGISWNSGSIGYADSVKGRFTISRDNAKNSLYLQMNSLRAEDTALYYCAKEGYGNDAFDIWGQGTMVTVSS
VL: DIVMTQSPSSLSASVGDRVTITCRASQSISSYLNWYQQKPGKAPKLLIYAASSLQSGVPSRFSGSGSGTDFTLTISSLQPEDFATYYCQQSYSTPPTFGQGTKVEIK
notes: human IgG1, lambda or kappa light chain; also called 432-H10
B6: Antibody No. 38 (antibody, V domains shown)
VH: EVQLVQSGAEVKKPGASVKVSCKASGYTFTSYYMHWVRQAPGQGLEWMGIINPSGGSTSYAQKFQGRVTMTRDTSTSTVYMELSSLRSEDTAVYYCARNVPGDYEVGFDYWGQGTLVTVSS
VL: QSVLTQPPSVSGAPGQRVTISCTGSSSNIGAGYDVHWYQQLPGTAPKLLIYGNSNRPSGVPDRFSGSKSGTSASLAITGLQAEDEADYYCQSYDSSLSAVVFGGGTKLTVL
notes: human IgG1, lambda or kappa light chain; also called 447-A05
B7: Antibody No. 37 (antibody, V domains shown)
VH: QVQLVQSGAEVKKPGASVKVSCKASGYTFTSYYMHWVRQAPGQGLEWMGIINPSGGSTSYAQKFQGRVTMTRDTSTSTVYMELSSLRSEDTAVYYCARDSYYDSSGYYYADAFDIWGQGTMVTVSS
VL: QSVLTQPPSVSGAPGQRVTISCTGSSSNIGAGYDVHWYQQLPGTAPKLLIYGNSNRPSGVPDRFSGSKSGTSASLAITGLQAEDEADYYCQSYDSSLSGDVVFGGGTKLTVL
notes: human IgG1, lambda or kappa light chain; also called 447-F02
B8: Antibody No. 13 (antibody, V domains shown)
VH: QVQLVQSGGGLVQPGRSLRLSCAASGFTFDDYAMHWVRQAPGKGLEWVSGISWNSGSIGYADSVKGRFTISRDNAKNSLYLQMNSLRAEDTALYYCAKEDGSYALDYWGQGTLVTVSS
VL: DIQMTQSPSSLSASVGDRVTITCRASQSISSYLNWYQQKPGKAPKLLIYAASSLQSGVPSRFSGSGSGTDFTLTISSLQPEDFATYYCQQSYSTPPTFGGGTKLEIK
notes: human IgG1, lambda or kappa light chain; also called 432-G09
B9: Antibody No. 34 (antibody, V domains shown)
VH: B8 VH with Q6E, D100G, S102D, Y103S, A104D, L105F
VL: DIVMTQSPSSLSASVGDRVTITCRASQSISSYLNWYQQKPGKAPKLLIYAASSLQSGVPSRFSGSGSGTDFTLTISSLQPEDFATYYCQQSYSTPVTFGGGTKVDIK
notes: human IgG1, lambda or kappa light chain; also called 447-B01
B10: Antibody No. 17 (antibody, V domains shown)
VH: EVQLVQSGGGVVQPGRSLRLSCAASGFTFSSYGMHWVRQAPGKGLEWVAVISYDGSNKYYADSVKGRFTISRDNSKNTLYLQMNSLRAEDTAVYYCAKDIFMDVWGQGTMVTVSS
VL: QSALTQPASVSGSPGQSITISCTGTSSDVGGYNYVSWYQQHPGKAPKLMIYDVSNRPSGVSNRFSGSKSGNTASLTISGLQAEDEADYYCSSYTSSSTLVVFGGGTKLTVL
notes: human IgG1, lambda or kappa light chain; also called 447-C04
B11: Antibody No. 18 (antibody, V domains shown)
VH: EVQLLESGGGLVQPGRSLRLACVASGFTFDDYGMHWVRQAPGKGLEWVAVISYDGSNKYYADSVKGRFTISRDNSKNTLYLQMNSLRAEDTAVYYCAKAYGEGGFDPWGQGTLVTVSS
VL: B10 VL with D52E, L99T, V100W, L108V
notes: human IgG1, lambda or kappa light chain; also called 447-D03
B12: Antibody No. 19 (antibody, V domains shown)
VH: QVQLVQSGGGVVQPRRSLRLSCAASGFTFSSYAMHWVRQAPGKGLEWVAVISYDGSNKYYADPVKGRFTISRDNSKNTLYLQMNSLRAEDTAVYYCARGGDGYNWDAFDIWGQGTMVTVSS
VL: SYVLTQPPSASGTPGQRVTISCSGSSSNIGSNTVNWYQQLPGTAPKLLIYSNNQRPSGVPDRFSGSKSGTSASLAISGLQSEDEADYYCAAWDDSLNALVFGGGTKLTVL
notes: human IgG1, lambda or kappa light chain; also called 447-D04
B13: Antibody No. 36 (antibody, V domains shown)
VH: EVQLVESGGGVVQPGRSLRLSCAASGFTFSSYAMHWVRQAPGKGLEWVAVISYDGSNKYYADSVKGRFTISRDNSKNTLYLQMNSLRAEDTAVYYCARDPLYGMDVWGQGTLVTVSS
VL: QSVLTQPPSASGSPGQSVTISCTGTSSDVGNYNYVSWFQQHPGKAPKLMIYEVSKRPSGVPDRFSGSKSGNTASLTVSGLQAEDEADYYCASYADSNNLYVFGTGTKLTVL
notes: human IgG1, lambda or kappa light chain; also called 447-B03
B14: Antibody No. 30 (antibody, V domains shown)
VH: EVQLVQSGGGLVQPGGSLRLSCAASGFTFSSYAMSWVRQAPGKGLEWVSAISGSGGSTYYADSVKGRFTISRDNAKNSLYLQMNSLRAEDTAVYYCARVRVSDGRFDYWGQGTLVTVSS
VL: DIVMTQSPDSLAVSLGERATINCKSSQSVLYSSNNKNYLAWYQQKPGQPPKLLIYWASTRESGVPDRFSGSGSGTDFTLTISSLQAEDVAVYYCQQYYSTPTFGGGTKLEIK
notes: human IgG1, lambda or kappa light chain; also called 448-E04
B15: Antibody No. 52 (antibody, V domains shown)
VH: QVQLVQSGAEVKKPGASVKVSCKASGYTFTSYGISWVRQAPGQGLEWMGWISAYNGNTNYAQKLQGRVTMTTDTSTSTAYMELRSLRSDDTAVYYCASWGVVGGMDVWGQGTLVTVSS
VL: DIQMTQSPSSVSASVGDRVTITCRASQGISSWLAWYQQKPGKAPKLLIYAASSLQSGVPSRFSGSGSGTDFTLTISSLQPEDFATYYCQQANSFPLTFGGGTKVDIK
notes: human IgG1, lambda or kappa light chain; also called 448-F05
B16: Antibody No. 57 (antibody, V domains shown)
VH: QVQLVESGAEVKKPGASVKVSCKASGYTFTSYYMHWVRQAPGQGLEWMGIINPSGGSTSYAQKFQGRVTMTRDTSTSTVYMELSSLRSEDTAVYYCARMTTSLGFDYWGQGTLVTVSS
VL: B15 VL with M4L, R18K, S31N, Q38L, I48V, S77N, F94L, K103R, V104L, D105E
notes: human IgG1, lambda or kappa light chain; also called 447-H10
B17: Antibody No. 28 (antibody, V domains shown)
VH: B13 VH with E1Q, E6Q, P100S, L101G, Y102V, G103V, V106Y
VL: B3 VL with S33N, L100V, L107V
notes: human IgG1, lambda or kappa light chain; also called 447-F08
B18: Antibody No. 51 (antibody, V domains shown)
VH: QVQLQESGGGVVQPGRSLRLSCAASGFTFSSYAMHWVRQAPGKGLEWVAVISYDGSNKYYAGSVKGRFTISRDNSKNTLYLQMNSLRAEDTAVYYCARDWRGVYFDYWGQGTLVTVSS
VL: B3 VL with S33N, D52E, L100V
notes: human IgG1, lambda or kappa light chain; also called 447-E05
B19: Antibody No. 26 (antibody, V domains shown)
VH: EVQLLESGGGVVQPGRSLRLSCAASGFTFSSYAMHWVRQAPGKGLEWVAVISYDGSNKYYADSVKGRFTISRDNSKNTLYLQMNSLRAEDTAVYYCARELYYGPGGMDVWGQGTLVTVSS
VL: B6 VL with A99G, V100S
notes: human IgG1, lambda or kappa light chain; also called 447-D06
B20: Antibody No. 24 (antibody, V domains shown)
VH: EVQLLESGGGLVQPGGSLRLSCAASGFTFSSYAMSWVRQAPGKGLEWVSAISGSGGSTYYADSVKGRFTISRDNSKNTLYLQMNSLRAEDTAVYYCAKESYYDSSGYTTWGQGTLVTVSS
VL: B6 VL with A99G, V100Y, G104T
notes: human IgG1, lambda or kappa light chain; also called 447-C09
B21: Antibody No. 23 (antibody, V domains shown)
VH: QVQLVQSGGGLVQPGRSLRLSCAASGFTFDDYAMHWVRQAPGKGLEWVSGISWNSGSIGYADSVKGRFTISRDNAKNSLYLQMNSLRAEDTALYYCAKDIAGGDYPVFDYWGQGTLVTVSS
VL: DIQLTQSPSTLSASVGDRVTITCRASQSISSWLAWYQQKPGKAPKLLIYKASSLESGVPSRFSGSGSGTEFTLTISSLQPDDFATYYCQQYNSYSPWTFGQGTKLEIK
notes: human IgG1, lambda or kappa light chain; also called 435-B08
B22: Antibody No. 55 (antibody, V domains shown)
VH: QVQLVQSGAEVKKPGASVKVSCKASGYTFTSYYMHWVRQAPGQGLEWMGIINPSGGSTSYAQKFQGRVTMTRDTSTSTVYMELSSLRSEDTAVYYCARDDYGDYWGQGTLVTVSS
VL: QSALTQPASVSGSPGQSITIPCTGTSSDVGGYNYVSWYQQHPGKAPKLMIYEVSNRPSGVSNRFSGSKSGNTASLTISGLQAEDEADYYCSSYTSSSFSFGTGTKLTVL
notes: human IgG1, lambda or kappa light chain; also called 447-C08
B23: Antibody No. 53 (antibody, V domains shown)
VH: QVQLVQSGGGVVQPGRSLRLSCAASGFTFSSYGMHWVRQAPGKGLEWVAVISYDGSNKYYADSVKGRFTISRDNSKNTLYLQMNSLRAEDTAVYYCAKDFSDAFDIWGQGTMVTVSS
VL: QSVLTQPPSVSAAPGQKVTISCSGSSSNIGNNYVSWYQQLPGTAPKLLIYDNNKRPSGIPDRFSGSKSGTSATLGITGLQTGDEADYYCGTWDSSLSAVVFGGGTKVTVL
notes: human IgG1, lambda or kappa light chain; also called 447-G07
B24: Antibody No. 31 (antibody, V domains shown)
VH: EVQLLESGGGVVQPGRSLRLSCAASGFTFSSYAMHWVRQAPGKGLEWVAVISYDGSNKYYADSVKGRFTISRDNSKNTVSLQMSSLRADDTAIYYCVKDTILIDWGQGTLVTVSS
VL: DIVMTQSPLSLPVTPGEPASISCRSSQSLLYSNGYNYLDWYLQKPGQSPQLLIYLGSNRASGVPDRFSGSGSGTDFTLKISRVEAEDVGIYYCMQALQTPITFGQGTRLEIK
notes: human IgG1, lambda or kappa light chain; also called 448-E06
B25: Antibody No. 54 (antibody, V domains shown)
VH: B13 VH with V5L, A33G, R98K, D99G, P100S, L101G, Y102W, G103Y, M104F, V106Y
VL: not shown
notes: human IgG1, lambda or kappa light chain; also called 447-C12

Biological target: T1, Perilipin epitope 5 peptide AKPSLLSRVGALTNT (SEQ ID NO. 332) (human, Biotin-PEG Spacer and GGSGGS Linker (SEQ ID NO. 438) at the N-terminus, or Biotin-PEG Spacer and AAAAA Linker (SEQ ID NO. 439) at the C-terminus)
T1 construct: Two biotinylated variants were used for selection and ELISA; On the peptide array it stood without biotin; also called target peptide
T1 peptide: AKPSLLSRVGALTNT
Assay: phage display selection and ELISA on biotinylated target peptide

Question: Does B1 bind?
Answer: Result: binds

Question: Does B2 bind?
Answer: Result: binds

Question: Does B3 bind?
Answer: Result: binds

Question: Does B4 bind?
Answer: Result: binds

Question: Does B5 bind?
Answer: Result: binds

Question: Does B6 bind?
Answer: Result: binds

Question: Does B7 bind?
Answer: Result: binds

Question: Does B8 bind?
Answer: Result: binds

Question: Does B9 bind?
Answer: Result: binds

Question: Does B10 bind?
Answer: Result: binds

Question: Does B11 bind?
Answer: Result: binds

Question: Does B12 bind?
Answer: Result: binds

Question: Does B13 bind?
Answer: Result: binds

Biological target: T2, Perilipin epitope 6 peptide EVRVPWLHSLAAAQE (SEQ ID NO. 333) (human, Biotin-PEG Spacer and GGSGGS Linker (SEQ ID NO. 438) at the N-terminus, or Biotin-PEG Spacer and AAAAA Linker (SEQ ID NO. 439) at the C-terminus)
T2 construct: Two biotinylated variants were used for selection and ELISA; On the peptide array it stood without biotin; also called target peptide
T2 peptide: EVRVPWLHSLAAAQE
Assay: as above

Question: Does B14 bind?
Answer: Result: binds

Question: Does B15 bind?
Answer: Result: binds

Question: Does B16 bind?
Answer: Result: binds

Question: Does B17 bind?
Answer: Result: binds

Question: Does B18 bind?
Answer: Result: binds

Question: Does B19 bind?
Answer: Result: binds

Question: Does B20 bind?
Answer: Result: binds

Question: Does B21 bind?
Answer: Result: binds

Question: Does B22 bind?
Answer: Result: binds

Question: Does B23 bind?
Answer: Result: binds

Question: Does B24 bind?
Answer: Result: binds

Question: Does B25 bind?
Answer: Result: binds
